Experiment: yeast display, Sf9 membrane polyspecificity reagent, FACS + sequencing; frameworks hold sequencing errors
Method in brief: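 Galactose-induced (36–48 hours) yeast carrying a synthetic nanobody display library were exposed to 10% biotinylated, detergent-solubilized Sf9 membrane reagent at 4 °C for 1 hour. FACS followed streptavidin microbead enrichment, using low and high (top ~1%) gates for expression (anti-HA) and reagent binding (streptavidin). Colony PCR, MiSeq 2 × 250 sequencing and CDR-length filtering followed. Labels for polyreactivity reflect the gate of origin.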

Row | Sequence | polyreactivity (PSR sort gate)
1 | QVQLGESGGGLVQAGGSLRLTCAASGYIFISDAMGLYRQAHGKEREFVAAITGDGGSTYADSVKGRFTISRYNAKNTVYLQMNSLKPEDTAVYYCAAEGQLFDLYDYWGQGTEVTVSS | low polyreactivity
2 | QVQLVESGGGLVQAGGSLRLSCAASGRIFYLNVMGWYRQAPGKERELVAAITRRDVTTYADSVKGRFTISRDNAKNTVYLQMKSLKPEDTAFYYCNAVYYNWIGFDYWGQGTQVTVSS | low polyreactivity
3 | QVKLVESCGGLVQAGGSLRLSCAASGYISSFNTKGWYRQAPGKERELVAAITRDGSTYYADSVKGRFTISRDNAKNSVYLQMNSLKPEYTAVYYCAARGWYATWLYYYWGQGSQVTVSS | high polyreactivity
4 | QVQLVESGGGLVQAGGSLRLTCAASGSIVQVYPMVWYRQEPGKEREFVAAISYSGGGTYYADSVKGRFTISRDIAKNTVYLQMNILKPEDTAVYYCAADVSAWEEDIWRQGTQVTVSS | low polyreactivity
5 | QVQLVESGGGLVQAGGSLRLSCAASGSIFGPNAMGWYRQSPGKERELVAAISWGGGSTYYADSVKARITISRDNAINTVYLQMNILKPEDTGVYYCNASGYHDTAVRYDYWGQGTQVTVSS | low polyreactivity
6 | QVQLVESGGGLVQAGGSLRLSCAAYGRTITYYAMGGYRQSPGKERELVAAIPWSGGSTYYADSVKGRFTISRDNAKNTVYLQMNSLKPEDTAVYYCSADSYIYSVNYWGQGTQLTVSS | low polyreactivity
7 | QVQLVESGGGLVQAGGSLRLSCAASGITFYWYAMGWYRQAPGKERELVARISSTGGSTYYADSVKGRFTISRDNAKNTVYLQMNSLKPEDTAVYYCNAVGRLYLYGSWGQGTQVTLSS | high polyreactivity
8 | QVQLVESGGGLVQAGGSLRLSCASSGSTFNPYAMGWYRQAPGKERELVAAISRGGRTKYADSVKGRFSISRDNAKNTVYCHMNSLKPEDTAVYYCAARQRSRSRYDYWGQVTQVTVSS | high polyreactivity
9 | QVQLVESGGGLVHAGGSLSLSCAASGSTFKDYAMGWYRQAPGKERELVAAISKGATRTYYADSVKGRFTISRDNAKITVYLQINSLKPEDTAVYYCAADRLKFRGEYDYWGQGSQVTVSS | high polyreactivity
10 | QVQLVESGGGLVQAGGSLRLSCAASGLIFGTYAMGWYRQAPGKERELVAVISSSGGSTYYADSVKGRFTISRDNAKNTVYLQMNSLKPEDTAVYYCNARAFRQGHFEYDYWGQGTQVTVSS | low polyreactivity
11 | QVQLVESGGGLVQAGGSLRLSCAASGRIFTHNVMGWYRQAPGTERELVAAISGGGGSTYYADSVKGRFTLSRDNAKNNVYKQMNSLKPEDTAVYYCAKDNHYEADRYDYWGQGTQVTVSS | low polyreactivity
12 | QVHLVESGGGLVQAGGSLRLSCAASGRTFGTYAMGWYRQAPGKERELVAAISSGGSTNYADSVKGRFTISRGNAKNTVYLQMNSLKPEDTAVYYCAAQGYWTYWPYLLRLYDYWGQGTQVTVSS | low polyreactivity
13 | QDQLVESGGGLVQAGGSLRLSCAASGLTFQSYAMGWYRQAPGKERELVATISNGSSTYYADSVKGRFTISRDNAKNTVYLQMNSLKPEDTAVYYFAKDYYYSRNPLYGLDYWGQGTQVTVSS | low polyreactivity
14 | QVQLVESGGGLVQAGGSLRLSCAGSGFTFGYYAMGWSRPAPGKERELVAAMSWNGGRTYYADSVKGRFTISRDNAKNTVYLQLNSLKPEDTAVYSCAADYRFYSPTKYSYDDWGQGTQVTVSS | high polyreactivity
15 | QVQHVESGGGLVQAGASLRLSCAASGTTFIGYERGRSRQAPGKVRELVAAISYSDGTYYADSVKGRFTISRENAKNTVYLQMNSLKPEDTAVYYCAADSLFYRYDYWGQGTQVTVSS | low polyreactivity
16 | QVQLVESGGGLVQAGGSLRLSCAASGRTFRSYVMGWYRQAPGKERELVAAITRSGGSTYYADSVKGRFTISRDNAKNTVYLQMNSLKPEDTAVYYCATDRWYYYPDYYPYGEYDYWGQGTQVTVSS | low polyreactivity
17 | QVQLVESGGGLVQAGGTLRLSCAPSGSTFYANTMGWYRPAPGKERELVATISWTGSSTYYADSVKGRFTISRDNAKNTVYLQMNSLNPEDTAVYYCNKRYYYRRNYWGQGTQVTVSS | high polyreactivity
18 | QVQLVESGGGLVQAGGSLRLSCAASGSIFQRNAIGWSRQAPGKERELVAAITTTGGITHYADSVKGRFTISRDNAKNTVYLQMNSLKPEDTAVYYCAASNEVPWRFPDDYWGQGTQVTVSS | low polyreactivity
19 | QVQLVESGGGLVQAGGSLRLICAASGRTFVYYAMGWYRQAPGKERELVAAISGGGSKTYADSVKGRFTISRDNAKYTVYLLMNSLKPEDTAVYYCGKSVWRRYYYWGQGNQVTVSS | high polyreactivity
20 | QVQLVESGGGLVQAGGSLRLSCAASGRTFRSNAMGWYRQAPGKERELVAAISKGGDRTYYADSVKGRFTISRDNAKNNVYLHMNSLKPEDTAVYYCAARYTPSRYYYWGQGTQVTVSS | high polyreactivity
21 | QVQLVESGGGLVQAGGSLRLICAASAFTIRRYAMGWYRQARGKERELVAAINWNGDTTYYADSVKGRFTISSDNAKNTVYLQMNSLKPEDTAVYYCATSDYYYDYWGQGTQVTVSS | high polyreactivity
22 | QVQLVESGGGLVQAGGSLRLSCAASGRTFIPYAMGWYRQAPGKERELVAAISYSGGSTYYADSVKGRFTISRDNAKNTVYLQMYSLKPEDTAVYYCNAYYGSYYYDYNYWGQGTQVSVSS | high polyreactivity

Row | Sequence | polyreactivity (PSR sort gate)
23 | QVQLVESGGGLVQAGGSLRLSCAASGRIVRPNAMGWYRQAPGKERELVAAIRSTVGSTFYADSVKGRFTISRDNAKNTVYLEMISLKPEDTAVYDCAAGTSRQFFYWGQGTQVTVAS | low polyreactivity
24 | QVQLVESGGGLVQAGGSLRLSCAASGRTFAYYVMGWYIQAPGTERELVAAISWSAGCTYYADSVKGRFTISRDNAKNTVYLQMNSLIPEDTAVDYCAADYRFRYEYWGQGTQVTVSS | low polyreactivity
25 | QVQLVESGGGLVQAGGSLRLSCAASGSIFRNYAMGWYRQAPGKERELVAAISRTTRTYYADSVKGRFTISRDNAKNTVYLQMNSLKPEDTAVYYCAADYVYAGFWLYYWGQGTQVTVSS | high polyreactivity
26 | QVQLVESGGGLVQAGGSLRLSCAASGNIFDGNAMGWYRQAPGKERELVAAITSSGDSTYYADSVKGRFTISRDNAKNTVYLLMNSLKPEDTAVYYCAAGYRWGYYYWGQGTQVTVSS | high polyreactivity
27 | QVQLVESGGGLVQAGGSLRLSCAASGSIFGYYAMGWSRQAPGKERELVASISSTGSTYYADSVKGRFTISRDNAKNTVSLQMNSLKPEDTAVYYCAADTLIFPWGFESWGQGTQVTVSS | high polyreactivity
28 | QVQLVESGGGLVQAGGSLRVSCAASGIIFGPYVMGWSRQAPGKERELVATISRTGDTYYADSVKGRFTISRDNAKNTVYLQMNSLKPEDTAVYYCNTQDHGYGFTMDYWGQGTQVTVSS | low polyreactivity
29 | QVQLVESGGGLVQAGGSLRLSCAASGFTFRTYAMGWYRQAPGKERELVAAITGRGSNTYYADSVKGRFTISRDNAKNTVYLQMNSLKPEDTAVYYCNARYYDYRVALRYDYWGQGTQVTVSS | high polyreactivity
30 | QVQLVESGGGLVQAGGSLRLSCAASGRTLGTNAMGWYRQAPGKERELVASISKRGGSTYYADSVKGRFTISRDNAKNTVYLQMNSLKPEDTAVYYCAALFLSHIYYYWGQGTQVTVSS | high polyreactivity
31 | QVQLVESGGGLVQAGGSLRLSCAASGLTFSKYVMGWYRQAPGKERELVAAITWSGGRTYYADSVKGRFTISRDNAKNTVYLQMNSLKPEDTAVYYCNRKLKGLGYEYDYWGQGTQVTVSS | high polyreactivity
32 | QVQLVESGGGLVQAGGSLRLSCAASGSTFYKYAMGWYRQAPGKERELVAVITKSGGSTYYADSVKGRFTISRDNEKNTVYLQMNSLKPEDTAVYYCAAEDHYGYNSGYDYWGQGTQVTVSS | high polyreactivity
33 | QVQLVESGGGLVQAGGSLRLSCAASGSTFYFYAMGGYRQAPGKERELVAVISSGGRTYYADSVKGRFTISRDNAKNTVYLQMNSLKPEDTAVYYCAASWPSSLTYYYWGQGTQVTVSS | low polyreactivity
34 | QVQLVESGGGLVQAGGSLRLSCAASGSTFRGYAMGWYRQEPGKEREFVASISLSGGSTYYADSVKGRFTISRDNAKYTVYLQMNSLKPEDSAVYYCAARARGYGWRGDYWRQGTQVTVSS | low polyreactivity
35 | QVQLVESGGGLVQAGGSLRLSCAASGSIFVSYAMGWYRQAPGKERELVAAITRGGSTNYADSVKGRFTISRDNAKNTVYLQMNSLKPEDTAVYYCAAAYRRGGPPLDYWGQGTQVTVSS | low polyreactivity
36 | QVQLVESGGRLLQAGGSLRLSCAASGSIFVGYAMGWYRQAPGKEWELVAAISASGGRTYYADSVKGRFTISRDNAKTTVYLQMNSLKPEDTAVYYCATDDYWGRGTQVTVSS | high polyreactivity
37 | QVQLVESGGGLVQAGGSLLLSCAASGFTFDYYAMGWYRQAPGKERELVAAITWSGGSTYYADSVKGRFTISRDNAKNTVYLQMNSLKPEDTAVYYCNAYYYHLYRGSTSYDYWGQGTQVTVSS | low polyreactivity
38 | QVQLEESGGGLVQAGGSLRLSCAASGSIFALYAMGWYRQAPGKERELVAAISYRGGRTYYADSVKARFTISRDYAKNTVYLQMNILKPEDTAVYYCATDFPCKFDFWGQGTQVTVSS | low polyreactivity
39 | QVPLVESGGGLVQAGGSLRLSCAASGSIFWTYTIGWYRKAPGKERELVAAITSSGSTNFADSVKGRFTISRDNAKKTVYLQMNSLKPADTAVYYCAADPEYRGYQRYDYWGQGTQVTVSS | low polyreactivity
40 | QVQLVESGGGLVQAGGSLRLSCAASGSTSQTYAMGWYRQAPGKERELVASMTRSGVRTYYADSVKGRFTISRDNAKYTVYLQMNSLKPEDTAVYYCAAKYSYGFYRTGYYWGQGTQVTVSS | high polyreactivity
41 | QVQLVESGGGLVQAGGSLRLSCAASGSIFYYNAMGWYRQAPGKERELVAAISSDGGTYYADSVKGRFTISRDNAKNTVYLQMNSLKPEDTAVYYCNAEVFWWDQWYDYWGQGTQVTVSS | high polyreactivity
42 | QVQLVESGGGLVQAGGSLRLSCAASGSTFSQYAMGWYRPAPGKERELVAAINYIGGSTYYADSVKGRFTISRDNAKNTVYLQMNSLKPEDTAVYYCAVQRWKSSVSFGYWGQGTQVTVSS | low polyreactivity
43 | QVQLVESGGGLVQAGGSLRLSCAASGSIFCDKAMGWYRQAPGKERELVAAISIVGSTSYADSVKGRFTISRDNANNTVYLQMNSLKPEDTAVYYCAAENVRSDTGFDYWGQGTQVTVSS | low polyreactivity
